We go through two substances from paper PMC7337065.

Data set [1] concerns the target Recombinant human transferrin (human) (UniProt P02787). Kind of data set: SEC-MALS; Superdex 200 Increase 10/30 GL, 4 °C, mobile phase 38 mM NaH2PO4, 12 mM Na2HPO4, 150 mM NaCl, 200 ppm NaN3, pH 7.4; samples from all tested formulation conditions.
The test system of data set [2] is P02787. Kind of data set: SAXS; concentration series at pH 4.0-8.0 and with NaCl or arginine at pH 5.0/6.5; estimated MW from scattering; volume fractions from OLIGOMER with monomer crystal structures and a SASREFMX dimer model. Particulars: other: SAXS.

Several values for one entry are separate records, joined by “and”; a condition that tells them apart may be missing. Identical values can stand only once.

Chain of Recombinant human transferrin (P02787 20-698): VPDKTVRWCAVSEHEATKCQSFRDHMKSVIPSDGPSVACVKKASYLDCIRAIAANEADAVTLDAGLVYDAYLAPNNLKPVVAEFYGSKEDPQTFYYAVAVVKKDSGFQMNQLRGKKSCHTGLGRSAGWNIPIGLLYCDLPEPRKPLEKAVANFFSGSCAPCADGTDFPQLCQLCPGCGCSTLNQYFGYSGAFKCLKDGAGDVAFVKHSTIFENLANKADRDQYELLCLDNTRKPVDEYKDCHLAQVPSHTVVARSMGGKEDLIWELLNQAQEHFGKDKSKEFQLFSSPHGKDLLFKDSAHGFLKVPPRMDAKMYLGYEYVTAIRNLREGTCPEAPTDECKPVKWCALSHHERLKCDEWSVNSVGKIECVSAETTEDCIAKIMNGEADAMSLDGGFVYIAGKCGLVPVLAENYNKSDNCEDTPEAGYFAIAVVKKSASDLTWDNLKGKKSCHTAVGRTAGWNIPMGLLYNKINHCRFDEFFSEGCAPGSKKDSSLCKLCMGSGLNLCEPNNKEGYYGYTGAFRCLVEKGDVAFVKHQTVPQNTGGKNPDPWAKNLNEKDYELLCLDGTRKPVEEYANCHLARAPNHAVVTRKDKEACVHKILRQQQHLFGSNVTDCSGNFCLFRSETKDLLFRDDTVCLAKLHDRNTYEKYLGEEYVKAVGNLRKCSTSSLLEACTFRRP

Regarding “Recombinant human transferrin (from UniProt P02787 20-698) (natural protein)”, in data set [1], the percent dimer stood at 12%; the percent trimer was found to be 2%; the stoichiometry N was 2 and 3.

In the case of Recombinant human transferrin, in data set [2], the volume fraction of dimer + aggregates (NaCl) is 0.5, the volume fraction of dimer + aggregates (acetate) is 0.2, the volume fraction of dimer + aggregates (arginine) was 0.4 and the volume fraction of dimer + aggregates (histidine) is 0.2.
